Measured values: US11504441B2, “Radiolabeled compounds targeting the prostate-specific membrane antigen” (PROVINCIAL HEALTH SERVICES AUTHORITY, priority 2019, dated 2022)

Test: in vivo
Set-up: species or system mice
Conditions: male, NODSCID 1L2RγKO, mouse, iv, total radioactivity

O=C(O)CCC[C@H](NC(=O)N[C@@H](CCCCNC(=O)[C@H](Cc1c2ccccc2cc2ccccc12)NC(=O)[C@H]1CC[C@H](CNC(=O)[C@H](CCCCNC(=O)CN2CCN(CC(=O)O)CCN(CC(=O)O)CCN(CC(=O)O)CC2)NC(=O)CNC(=O)CCCc2ccc(Cl)cc2)CC1)C(=O)O)C(=O)O [177Lu-HTK03153, metal not drawn]
tissue uptake at 1 h (Adrenal glands uptake): 4.52 ± 0.46 %ID/g | tissue uptake at 4 h (Adrenal glands uptake): 3.5 ± 0.46 %ID/g | tissue uptake at 24 h (Adrenal glands uptake): 2.35 ± 0.47 %ID/g | tissue uptake at 72 h (Adrenal glands uptake): 1.2 ± 0.26 %ID/g | tissue uptake at 120 h (Adrenal glands uptake): 0.82 ± 0.19 %ID/g | tissue uptake at 1 h (Blood uptake): 24.7 ± 2.11 %ID/g | tissue uptake at 4 h (Blood uptake): 18.8 ± 1.16 %ID/g | tissue uptake at 24 h (Blood uptake): 7.44 ± 1.12 %ID/g | tissue uptake at 72 h (Blood uptake): 1.46 ± 0.58 %ID/g | tissue uptake at 120 h (Blood uptake): 0.37 ± 0.13 %ID/g | tissue uptake at 1 h (Bone uptake): 1.26 ± 0.15 %ID/g | tissue uptake at 4 h (Bone uptake): 0.83 ± 0.15 %ID/g | tissue uptake at 24 h (Bone uptake): 0.4 ± 0.08 %ID/g | tissue uptake at 72 h (Bone uptake): 0.16 ± 0.06 %ID/g | tissue uptake at 120 h (Bone uptake): 0.06 ± 0.04 %ID/g | tissue uptake at 1 h (Brain uptake): 0.35 ± 0.03 %ID/g | tissue uptake at 4 h (Brain uptake): 0.27 ± 0.03 %ID/g | tissue uptake at 24 h (Brain uptake): 0.13 ± 0.02 %ID/g | tissue uptake at 72 h (Brain uptake): 0.05 ± 0.02 %ID/g | tissue uptake at 120 h (Brain uptake): 0.03 %ID/g | tissue uptake at 1 h (Fat uptake): 1.61 ± 0.36 %ID/g | tissue uptake at 4 h (Fat uptake): 1.46 ± 0.36 %ID/g | tissue uptake at 24 h (Fat uptake): 0.66 ± 0.16 %ID/g | tissue uptake at 72 h (Fat uptake): 0.3 ± 0.13 %ID/g | tissue uptake at 120 h (Fat uptake): 0.19 ± 0.09 %ID/g | tissue uptake at 1 h (Heart uptake): 5.95 ± 0.44 %ID/g | tissue uptake at 4 h (Heart uptake): 4.26 ± 0.44 %ID/g | tissue uptake at 24 h (Heart uptake): 1.9 ± 0.25 %ID/g | tissue uptake at 72 h (Heart uptake): 0.68 ± 0.25 %ID/g | tissue uptake at 120 h (Heart uptake): 0.32 ± 0.07 %ID/g | tissue uptake at 1 h (Intestine uptake): 1.56 ± 0.16 %ID/g | tissue uptake at 4 h (Intestine uptake): 1.22 ± 0.16 %ID/g | tissue uptake at 24 h (Intestine uptake): 0.78 ± 0.1 %ID/g | tissue uptake at 72 h (Intestine uptake): 0.3 ± 0.1 %ID/g | tissue uptake at 120 h (Intestine uptake): 0.18 ± 0.08 %ID/g | tissue uptake at 1 h (Kidneys uptake): 10 ± 1.09 %ID/g | tissue uptake at 4 h (Kidneys uptake): 9.1 ± 1.09 %ID/g | tissue uptake at 24 h (Kidneys uptake): 8.81 ± 1.06 %ID/g | tissue uptake at 72 h (Kidneys uptake): 4.95 ± 2.39 %ID/g | tissue uptake at 120 h (Kidneys uptake): 2.81 ± 0.35 %ID/g | tissue uptake at 1 h (Lacrimal uptake): 0.35 ± 0.07 %ID/g | tissue uptake at 4 h (Lacrimal uptake): 0.35 ± 0.14 %ID/g | tissue uptake at 24 h (Lacrimal uptake): 0.18 ± 0.06 %ID/g | tissue uptake at 72 h (Lacrimal uptake): 0.05 ± 0.05 %ID/g | tissue uptake at 120 h (Lacrimal uptake): 0.02 ± 0.02 %ID/g | tissue uptake at 1 h (Liver uptake): 3.61 ± 0.65 %ID/g | tissue uptake at 4 h (Liver uptake): 3.19 ± 0.65 %ID/g | tissue uptake at 24 h (Liver uptake): 1.52 ± 0.25 %ID/g | tissue uptake at 72 h (Liver uptake): 0.73 ± 0.21 %ID/g | tissue uptake at 120 h (Liver uptake): 0.4 ± 0.03 %ID/g | tissue uptake at 1 h (Lungs uptake): 10.8 ± 1.38 %ID/g | tissue uptake at 4 h (Lungs uptake): 9.4 ± 1.38 %ID/g | tissue uptake at 24 h (Lungs uptake): 3.93 ± 0.41 %ID/g | tissue uptake at 72 h (Lungs uptake): 1.87 ± 1.31 %ID/g | tissue uptake at 120 h (Lungs uptake): 0.56 ± 0.12 %ID/g | tissue uptake at 1 h (Muscle uptake): 1.54 ± 0.16 %ID/g | tissue uptake at 4 h (Muscle uptake): 1.19 ± 0.16 %ID/g | tissue uptake at 24 h (Muscle uptake): 0.56 ± 0.1 %ID/g | tissue uptake at 72 h (Muscle uptake): 0.18 ± 0.07 %ID/g | tissue uptake at 120 h (Muscle uptake): 0.07 ± 0.01 %ID/g | tissue uptake at 1 h (Pancreas uptake): 2.17 ± 0.21 %ID/g | tissue uptake at 4 h (Pancreas uptake): 1.6 ± 0.21 %ID/g | tissue uptake at 24 h (Pancreas uptake): 0.77 ± 0.09 %ID/g | tissue uptake at 72 h (Pancreas uptake): 0.29 ± 0.13 %ID/g | tissue uptake at 120 h (Pancreas uptake): 0.15 ± 0.04 %ID/g | tissue uptake at 1 h (Salivary uptake): 3.56 ± 0.39 %ID/g | tissue uptake at 4 h (Salivary uptake): 2.86 ± 0.39 %ID/g | tissue uptake at 24 h (Salivary uptake): 1.25 ± 0.14 %ID/g | tissue uptake at 72 h (Salivary uptake): 0.68 ± 0.22 %ID/g | tissue uptake at 120 h (Salivary uptake): 0.37 ± 0.04 %ID/g | tissue uptake at 1 h (Seminal uptake): 1.3 ± 0.32 %ID/g | tissue uptake at 4 h (Seminal uptake): 1.2 ± 0.32 %ID/g | tissue uptake at 24 h (Seminal uptake): 0.7 ± 0.5 %ID/g | tissue uptake at 72 h (Seminal uptake): 0.23 ± 0.11 %ID/g | tissue uptake at 120 h (Seminal uptake): 0.15 ± 0.05 %ID/g | tissue uptake at 1 h (Spleen uptake): 2.54 ± 0.27 %ID/g | tissue uptake at 4 h (Spleen uptake): 1.54 ± 0.27 %ID/g | tissue uptake at 24 h (Spleen uptake): 1.21 ± 0.24 %ID/g | tissue uptake at 72 h (Spleen uptake): 1.03 ± 0.46 %ID/g | tissue uptake at 120 h (Spleen uptake): 1.53 ± 0.71 %ID/g | tissue uptake at 1 h (Stomach uptake): 0.89 ± 0.15 %ID/g | tissue uptake at 4 h (Stomach uptake): 0.71 ± 0.15 %ID/g | tissue uptake at 24 h (Stomach uptake): 0.68 ± 0.15 %ID/g | tissue uptake at 72 h (Stomach uptake): 0.31 ± 0.17 %ID/g | tissue uptake at 120 h (Stomach uptake): 0.15 ± 0.1 %ID/g | tissue uptake at 1 h (Tail uptake): 5.38 ± 5.96 %ID/g | tissue uptake at 4 h (Tail uptake): 6.89 ± 5.96 %ID/g | tissue uptake at 24 h (Tail uptake): 1.55 ± 0.34 %ID/g | tissue uptake at 72 h (Tail uptake): 0.44 ± 0.15 %ID/g | tissue uptake at 120 h (Tail uptake): 0.24 ± 0.04 %ID/g | tissue uptake at 1 h (Testes uptake): 3.24 ± 0.4 %ID/g | tissue uptake at 4 h (Testes uptake): 3.45 ± 0.4 %ID/g | tissue uptake at 24 h (Testes uptake): 2.15 ± 0.33 %ID/g | tissue uptake at 72 h (Testes uptake): 1.38 ± 0.48 %ID/g | tissue uptake at 120 h (Testes uptake): 0.98 ± 0.22 %ID/g | tissue uptake at 1 h (Thyroid uptake): 4.8 ± 0.32 %ID/g | tissue uptake at 4 h (Thyroid uptake): 3.57 ± 0.32 %ID/g | tissue uptake at 24 h (Thyroid uptake): 1.95 ± 0.32 %ID/g | tissue uptake at 72 h (Thyroid uptake): 0.85 ± 0.28 %ID/g | tissue uptake at 120 h (Thyroid uptake): 0.52 ± 0.12 %ID/g | tissue uptake at 1 h (Tumor uptake): 14.2 ± 7.67 %ID/g | tissue uptake at 4 h (Tumor uptake): 27.9 ± 7.67 %ID/g | tissue uptake at 24 h (Tumor uptake): 57.2 ± 10.1 %ID/g | tissue uptake at 72 h (Tumor uptake): 69.1 ± 13.4 %ID/g | tissue uptake at 120 h (Tumor uptake): 86.4 ± 8.05 %ID/g
